Consider 12 molecules from patent publication US20180186871A1 (SINGAPORE HEALTH SERVICES PTE, published 2018).

In this experiment the target is T1, human IL-11 (human, UniProt P20809 22-199).
T1 sequence (looked up): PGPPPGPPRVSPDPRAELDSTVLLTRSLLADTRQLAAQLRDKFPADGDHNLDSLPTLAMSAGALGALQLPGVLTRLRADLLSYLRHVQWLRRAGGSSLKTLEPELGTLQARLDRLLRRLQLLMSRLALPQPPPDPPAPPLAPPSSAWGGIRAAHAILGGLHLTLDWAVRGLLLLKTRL
The experiment is described as follows: cell-based or functional assay.
Also: test concentration or dose not given here.

B1: YU100-B08 (scFv)
scFv: EVQLVQSGGGVVQPGRSLRLSCAASGFTFSSYGMHWVRQAPGKGLEWVAVISYDGSNKYYADSVKGRFTISRDNSKNTLYLQMNSLRAEDTAVYYCAKIGATDPLDYWGQGTLVTVSSGSASAPKLEEGEFSEARVQSALTQPASVSGSPGQSITISCTGTSSDVGGYNYVSWYQQHPGKVPRLLIYDVSNRPSGVSTRFSGSKSGNTASLTISGLQGEDEAEYYCSSFTSSTTWVFGGGTKLTVL
In the case of B1, the “MMP2 production (ng/ml), TGFB1-stimulated human atrial fibroblasts, Experiment 1 (NEG 42.7, POS 70.2)” value (shortened to “MMP2 production (ng/ml) … (NEG 42.7, POS 70.2)”) was 55.3 ng/mL and the “MMP2 production (ng/ml), TGFB1-stimulated human atrial fibroblasts, Experiment 2 (NEG 36.2, POS 62.3)” value (from here on “MMP2 production (ng/ml) … (NEG 36.2, POS 62.3)”) came to 40.6 ng/mL.

B2: YU100-F01 (scFv)
scFv: QVQLVQSGGGVVQPGRSLRLSCAASGFTFSSYGMHWVRQAPGKGLEWVAVISYDGSNKYYADSVKGRFTISRDNSKNTLYLQMNSLRAEDTAVYYCAKIGATDPLDYWGQGTLVTVSSGSASAPKLEEGEFSEARVQSALTQPASVSGSPGQSITISCTGTGSDVGAYDYVSWYQQHPGKAPKLMIYDVNNRPSGVSNRFSGSKSGNTASLTISGLQAEDEAEYYCSSFATSISWVFGGGTRLTVL
For B2, the “MMP2 production (ng/ml) … (NEG 42.7, POS 70.2)” value came to 52.8 ng/mL and the “MMP2 production (ng/ml) … (NEG 36.2, POS 62.3)” value was found to be 39.9 ng/mL.

B3: YU100-G07 (scFv)
scFv: QVQLVESGGGVVQPGRSLRLSCAASGFTFSSYGMHWVRQAPGKGLEWVAVISYDGSNKYYADSVKGRFTISRDNSKNTLYLQMNSLRAEDTAVYYCAKIGATDPLDYWGQGTLVTVSSGSASAPKLEEGEFSEARVQSALTQPASVSGSPGQSITISCTGTSSDVGAYDYVSWYQQHPGKAPKLMIYDVTNRPSGVSNRFSGSKSGNTASLTISGLQAEDEADYYCASYTRSSVWVFGGGTKLTVL
Regarding B3, the “MMP2 production (ng/ml) … (NEG 42.7, POS 70.2)” value was 59 ng/mL and the “MMP2 production (ng/ml) … (NEG 36.2, POS 62.3)” value turned out to be 49.7 ng/mL.

B4: YU100-H04 (scFv)
scFv: QVQLVESGGGVVQPGRSLRLSCAASGFTFSSYAMHWVRQAPGKGLEWVAVISYDGSNKYYADSVKGRFTISRDNSKNTLYLQMNSLRAEDTAVYYCARIMGYDYGDYDVVDYWGQGTLVTVSSGSASAPKLEEGEFSEARVQSALTQPASVSGSPGQSITISCTGTSSDIGVYNYVSWYQQHPGKAPKLMIYDVSKRPSGVPDRFSGSKSGNTASLTISGLQAEDEADYYCCSYAGSYTWVFGGGTKLTVL
Consider B4, for which the “MMP2 production (ng/ml) … (NEG 42.7, POS 70.2)” value was determined as 58.5 ng/mL and the “MMP2 production (ng/ml) … (NEG 36.2, POS 62.3)” value turned out to be 48.7 ng/mL.

B5: YU112-C05 (scFv, not shown: a dimerising Fc or GST)
scFv: EVQLVESGGGVVQPGRSLRLSCAASGFTFSSYAMHWVRQAPGKGLEWVAVISYDGSNKYYADSVKGRFTISRDNSKNTLYLQMNSLRAEDTAVYYCARIMGYDYGDYDVVDYWGQGTLVTVSSGSASAPKLEEGEFSEARVQSALTQPRSVSGSPGQSVTISCTGTISDVGGYNYVSWYQQHPGKAPKLMIYDVTKRPSGVPDRFSGSKSGNTASLTISGLQAEDEAGYYCSSYAGSYTWVFGGGTELTVL
With B5, the “MMP2 production (ng/ml) … (NEG 42.7, POS 70.2)” value amounted to 55.2 ng/mL and the “MMP2 production (ng/ml) … (NEG 36.2, POS 62.3)” value amounted to 50.1 ng/mL.

B6: YU100-H09 (scFv, not shown: a dimerising Fc or GST)
scFv: QVQLVQSGGGVVQPGRSLRLSCAASGFTFSSYAMHWVRQAPGKGLEWVAVISYDGSNKYYADSVKGRFTISRDNSKNTLYLQMNSLRAEDTAVYYCARIMGYDYGDYDVVDYWGQGTLVTVSSGSASAPKLEEGEFSEARVQSALTQPASVSGSPGQSITISCTGTSSDVGGYNYVSWYQQHPGKAPKLMIYDVSNRPSGVSNRFSGSKSGNTASLTISGLQAEDEADYYCCSYAGSYTWVFGGGTKLTVL
Consider B6, for which the “MMP2 production (ng/ml) … (NEG 42.7, POS 70.2)” value worked out at 52.9 ng/mL and the “MMP2 production (ng/ml) … (NEG 36.2, POS 62.3)” value was 39.6 ng/mL.

B7: YU112-C03 (scFv, not shown: a dimerising Fc or GST)
scFv: QVQLVESGGGVVQPGRSLRLSCAASGFTFSSYGMHWVRQAPGKGLEWVAVISYDGSNKYYADSVKGRFTISRDNSKNTLYLQMNSLRAEDTAVYYCAKGGKSYYGFDYWGQGTLVTVSSGSASAPKLEEGEFSEARVDSVMTQSPSSLSASVGDRVTITCRASQAINSYLNWYQQKPGKAPKLLIYAASSLQSGVPSRFSGSGSGTDFTLTISGLQPEDFATYYCQQSYSTPSWTFGQGTKVEIK
For the molecule B7, the “MMP2 production (ng/ml) … (NEG 42.7, POS 70.2)” value turned out to be 57.6 ng/mL and the “MMP2 production (ng/ml) … (NEG 36.2, POS 62.3)” value is 53.3 ng/mL.

B8: YU100-G10 (scFv)
scFv: QVQLVQSGGGVVQPGRSLRLSCAASGFTFSSYGMHWVRQAPGKGLEWVAVISYDGSNKYYADSVKGRFTISRDNSKNTLYLQMNSLRAEDTAVYYCAKIGATDPLDYWGQGTLVTVSSGSASAPKLEEGEFSEARVQSALTQPASVSGSLGQSITMSCTGTRRDVGGYDFVSWYQQYPGKAPKLIIYDVSNRPSGVSNRFTGSKSGNTASLTISGLQAEDEADYYCCSYAGTYTWVFGGGTKVTVL
Regarding B8, the “MMP2 production (ng/ml) … (NEG 42.7, POS 70.2)” value was found to be 54 ng/mL and the “MMP2 production (ng/ml) … (NEG 36.2, POS 62.3)” value was 45.4 ng/mL.

B9: YU112-H02 (scFv)
scFv: QVQLVESGGGVVQPGRSLRLSCAASGFTFSSYGMHWVRQAPGKGLEWVAVISYDGSNKYYADSVKGRFTISRDNSKNTLYLQMNSLRAEDTAVYYCAKLSGPNGVDYWGQGTLVTVSSGSASAPKLEEGEFSEARVQPVLTQPRSVSGSPGQSVTISCTGTSSDVGGYNYVSWYQQHPGKAPKVMIYDVSKRPSGVPDRFSGSKSGNTASLTISGLQAEDEADYYCCSYAGSYTWVFGGGTKLTVL
Turning to B9, the “MMP2 production (ng/ml) … (NEG 42.7, POS 70.2)” value worked out at 65.3 ng/mL and the “MMP2 production (ng/ml) … (NEG 36.2, POS 62.3)” value amounted to 58 ng/mL.

B10: YU112-H01 (scFv)
scFv: QVQLVESGGGVVQPGRSLRLSCAASGFTFGSYGMHWVRQAPGKGLEWVAVISYDGSNKYYADSVKGRFTISRDNSKNTLYLQMNSLRAEDTAVYYCAKGSYYFDYWGQGTLVTVSSGSASAPKLEEGEFSEARVETTLTQSPGTLSLSPGERATLSCRASQSVSSSYLAWYQQKPGQAPRLLIYGASSRATGIPDRFSGSGSGTDFTLTISSLQPDDFATYYCQQSYSTPTWTFGQGTKVEIK
On to B10, for which the “MMP2 production (ng/ml) … (NEG 42.7, POS 70.2)” value was 51.9 ng/mL and the “MMP2 production (ng/ml) … (NEG 36.2, POS 62.3)” value was 47.7 ng/mL.

B11: YU100-A10 (scFv)
scFv: EVQLVESGGGVVQPGRSLRLSCAASGFTFSSYGMHWVRQAPGKGLEWVAVISYDGSNKYYADSVKGRFTISRDNSKNTLYLQMNSLRAEDTAVYYCAKIGATDPLDYWGQGTLVTVSSGSASAPKLEEGEFSEARVLPVLTQPASVSGSPGQSITISCTGTSSDVGAYNYVSWYQQHPGKAPELMIYDVSNRPSGVSNRFSGSKSGNTASLTISGLQPEDEADYYCSSFTTSIAWVFGGGTKLTVL
Take B11: the “MMP2 production (ng/ml) … (NEG 42.7, POS 70.2)” value is 52.1 ng/mL and the “MMP2 production (ng/ml) … (NEG 36.2, POS 62.3)” value came to 50.1 ng/mL.

B12: YU112-F05 (scFv)
scFv: EVQLVQSGGGVVQPGRSLRLSCAASGFTFGSYGMHWVRQAPGKGLEWVAVISYDGSNKYYADSVKGRFTISRDNSKNTLYLQMNSLRAEDTAVYYCAKIGATDPLDYWGQGTLVTVSSGSASAPKLEEGEFSEARVQSALTQPRSVSGSPGQSVTISCTGTSSDVGGYNYVSWYQQHPGKAPKLIIYDVNNRPSGVSNRFSASKSGNTASLTISGLQAEDEADYYCNSYTSGSTWVFGGGTKLTVL
B12: the “MMP2 production (ng/ml) … (NEG 42.7, POS 70.2)” value was determined as 53.9 ng/mL and the “MMP2 production (ng/ml) … (NEG 36.2, POS 62.3)” value was found to be 48.5 ng/mL.
